Where two headings read alike, the source gives them in different places.
Tests used:
[1] = biological target: T1, full length cyno PD-L1 on cells (cyno, UniProt G7PSE7 19-290); test: FACS CHO-K1-cPD-L1, 0.03 nM mAb
T1 construct: also called CHO-K1-cPD-L1

[2] = biological target: T1, full length cyno PD-L1 on cells; test: FACS CHO-K1-cPD-L1, 0.003 nM mAb
[3] = biological target: T2, full length human PD-L1 on cells (human, UniProt Q9NZQ7 19-290); test: FACS CHOK1-hPD-L1, 3 nM mAb
T2 construct: Also used as the target of the cell-based functional assays (transfected stimulator cells; PD-L1 of the cells in the mixed lymphocyte reaction); also called CHO-K1-hPD-L1; CHOK1-hPD-L1
T2 sequence (Q9NZQ7 19-290 limits assumed): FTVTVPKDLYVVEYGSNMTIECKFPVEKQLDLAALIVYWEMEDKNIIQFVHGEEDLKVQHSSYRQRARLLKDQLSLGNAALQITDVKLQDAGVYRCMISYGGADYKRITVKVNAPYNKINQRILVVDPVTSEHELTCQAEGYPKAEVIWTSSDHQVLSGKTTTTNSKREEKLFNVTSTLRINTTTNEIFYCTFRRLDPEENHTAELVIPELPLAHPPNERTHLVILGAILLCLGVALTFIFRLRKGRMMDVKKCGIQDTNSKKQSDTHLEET

[4] = biological target: T1, full length cyno PD-L1 on cells; test: FACS CHO-K1-cPD-L1, 3 nM mAb
[5] = biological target: T3, recombinant His-tagged hPD-L1 ECD protein (human, UniProt Q9NZQ7 19-239); test: SPR Biacore T200, mAb captured by anti-human Fc, His-tagged hPD-L1 ECD as analyte, 1:1 model
T3 construct: also called His-tagged human PD-L1 ECD protein; His-tagged PD-L1^ECD; not shown: His tag
T3 sequence (Q9NZQ7 19-239): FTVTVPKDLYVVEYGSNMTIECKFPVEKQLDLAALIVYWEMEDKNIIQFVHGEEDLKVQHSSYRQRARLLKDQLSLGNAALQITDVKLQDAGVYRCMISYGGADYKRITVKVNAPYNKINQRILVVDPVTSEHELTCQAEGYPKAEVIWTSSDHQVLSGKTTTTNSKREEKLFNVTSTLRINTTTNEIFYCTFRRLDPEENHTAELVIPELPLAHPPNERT
Procedure: Anti-human Fc IgG was immobilized on flow cells 1 and 2: HBS-EP+ (10 mM HEPES, 150 mM NaCl, 3 mM EDTA, 0.05% P20, pH 7.4) was used as miming buffer, and the immobilization of anti-human Fc IgG was carried out using the immobilization wizard template. Flow cells 1 and 2 of a Series S CM5 sensor chip were activated with freshly-mixed 50 mmol/L NHS and 200 mmol/L EDC. 20 μg/mL of anti-human Fc IgG diluted in 10 mM NaAC (pH 4.5) was injected into the activated flow cells 1 and 2. The remaining active coupling sites were blocked with 1M ethanolamine.
KD measurements were carried out with HBS-EP+ as the running buffer. Each antibody was injected over the CM5 sensor flow cell 2 with a flow rate of 10 μL/min to reach response 230 RU. […] Buffer flow was maintained for 400 seconds for dissociation measurements (30 μL/min). To remove the tested antibody from the surface, 10 mM glycine-HCl pH 1.5 was injected for 20 seconds (30 μL/min). Flow cell 1 was used as reference flow cell. The above steps were repeated for each concentration of serially-diluted His-tagged PD-L1^ECD protein. The KD value for each antibody was evaluated using Biacore T200 evaluation software 1.0, and the data was fit with a 1:1 binding model.

[6] = biological target: T1, full length cyno PD-L1 on cells; test: FACS CHO-K1-cPD-L1, 0.3 nM mAb
[7] = biological target: T2, full length human PD-L1 on cells; test: FACS CHOK1-hPD-L1, 30 nM mAb
[8] = biological target: T1, full length cyno PD-L1 on cells; test: FACS CHO-K1-cPD-L1, 30 nM mAb
[9] = biological target: T2, full length human PD-L1 on cells; test: cell-based or functional assay
[10] = biological target: T2, full length human PD-L1 on cells; test: FACS CHOK1-hPD-L1, 0.03 nM mAb
[11] = biological target: T4, human PD-L1^ECD-hFc protein (human, UniProt Q9NZQ7 19-239, biotinylated in the PD-1 binding ELISA (Table 3) and in the Octet assay (Table 12)); test: ELISA receptor-ligand blocking assay: PD-L1 protein coated, fully human antibody titrated, blocked ligand B7.1, inhibition rate (%)
T4 construct: The plain and the biotinylated protein are kept as one molecule; also called PD-L1-hFc; Immunogen A; not shown: human IgG Fc fragment (hFc)
T4 sequence (Q9NZQ7 19-239): as above

[12] = biological target: T4, human PD-L1^ECD-hFc protein; test: ELISA receptor-ligand blocking assay: PD-L1 protein coated, fully human antibody titrated, blocked ligand PD-1, inhibition rate (%)
[13] = biological target: T2, full length human PD-L1 on cells; test: FACS CHOK1-hPD-L1, 0.003 nM mAb
[14] = biological target: T1, full length cyno PD-L1 on cells; test: FACS CHO-K1-cPD-L1, 0.0003 nM mAb
[15] = biological target: T2, full length human PD-L1 on cells; test: cell-based or functional assay; remark: listed apart in the source
[16] = biological target: T2, full length human PD-L1 on cells; test: FACS CHOK1-hPD-L1, 0.3 nM mAb
[17] = biological target: T2, full length human PD-L1 on cells; test: cell-based or functional assay; remark: listed apart in the source
[18] = biological target: T2, full length human PD-L1 on cells; test: cell-based or functional assay; remark: listed apart in the source
[19] = biological target: T1, full length cyno PD-L1 on cells; test: FACS CHO-K1-cPD-L1, 300 nM mAb
[20] = biological target: T2, full length human PD-L1 on cells; test: FACS CHOK1-hPD-L1, 300 nM mAb
[21] = biological target: T2, full length human PD-L1 on cells; test: FACS CHOK1-hPD-L1, 0.0003 nM mAb
[22] = biological target: T2, full length human PD-L1 on cells; test: cell-based or functional assay; remark: listed apart in the source

T1 sequence (G7PSE7 entry or part of it limits assumed): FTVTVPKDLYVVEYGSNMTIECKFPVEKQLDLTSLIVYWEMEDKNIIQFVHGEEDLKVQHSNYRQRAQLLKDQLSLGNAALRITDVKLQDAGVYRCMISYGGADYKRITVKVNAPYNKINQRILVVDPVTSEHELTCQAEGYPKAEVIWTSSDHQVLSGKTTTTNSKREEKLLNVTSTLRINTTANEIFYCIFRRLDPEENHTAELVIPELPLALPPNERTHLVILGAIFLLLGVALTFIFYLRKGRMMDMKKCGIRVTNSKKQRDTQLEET

B1: fully human anti-PD-L1 antibody 73D3G2 (antibody, human IgG4 S228P, kappa, V domains shown)
VH: EVQLVESGGGLVQPGGSLRLSCAASGFTFNTYWMNWVRQAPGRGLEWVANIKQDGGEKYYVDSVKGRFTISRDNAKNSLYLQMNSLRAEDTAMYYCARDGRSWYPDAFDIWGQGTVVTVSS
VL: DIQMTQSPSTLSASVGDRVTITCRASQSISTWLAWYQQKLGKAPKLLIYEVSILESGVPSRFSGSGSGTEFTLTISSLQPDDFATYYCQQYHSFSSFGGGTRVEIKR
notes: also called 73D3G2 (fully human)
Mean fluorescence intensity [1]: 26.2 | Mean fluorescence intensity [2]: 7.84 | Mean fluorescence intensity [3]: 576 | Mean fluorescence intensity [4]: 495 | Kd [5]: 0.536 nM | koff [5]: 0.000757 s⁻¹ | kon [5]: 1.41e+06 M⁻¹ s⁻¹ | Mean fluorescence intensity [6]: 174 | Mean fluorescence intensity [7]: 595 | Mean fluorescence intensity [8]: 519 | IFN-γ (pg/mL), MLR, 0.001 µg/mL mAb [9]: 957 pg/mL | IFN-γ (pg/mL), MLR, 0.01 µg/mL mAb [9]: 1080 pg/mL | IFN-γ (pg/mL), MLR, 0.1 µg/mL mAb [9]: 1990 pg/mL | IFN-γ (pg/mL), MLR, 1 µg/mL mAb [9]: 3040 pg/mL | IFN-γ (pg/mL), MLR, 10 µg/mL mAb [9]: 2590 pg/mL | Mean fluorescence intensity [10]: 28.6 | IC50 (read off the curve) [11]: ~1 nM | IC50 (read off the curve) [12]: ~1 nM | Mean fluorescence intensity [13]: 7.6 | Mean fluorescence intensity [14]: 4.87 | IL-2 (pg/mL), MLR, 0.001 µg/mL mAb [15]: 59.7 pg/mL | IL-2 (pg/mL), MLR, 0.01 µg/mL mAb [15]: 83.4 pg/mL | IL-2 (pg/mL), MLR, 0.1 µg/mL mAb [15]: 114 pg/mL | IL-2 (pg/mL), MLR, 1 µg/mL mAb [15]: 139 pg/mL | Mean fluorescence intensity [16]: 193 | IFN-γ (pg/mL), T cell stimulation assay, 0.001 µg/mL mAb [17]: 4450 pg/mL | IFN-γ (pg/mL), T cell stimulation assay, 0.01 µg/mL mAb [17]: 10600 pg/mL | IFN-γ (pg/mL), T cell stimulation assay, 0.1 µg/mL mAb [17]: 12300 pg/mL | IFN-γ (pg/mL), T cell stimulation assay, 1 µg/mL mAb [17]: 12300 pg/mL | IFN-γ (pg/mL), T cell stimulation assay, 10 µg/mL mAb [17]: 14000 pg/mL | IFN-γ (pg/mL), MLR, 0.001 µg/mL mAb [18]: 12500 pg/mL | IFN-γ (pg/mL), MLR, 0.01 µg/mL mAb [18]: 10000 pg/mL | IFN-γ (pg/mL), MLR, 0.1 µg/mL mAb [18]: 21000 pg/mL | IFN-γ (pg/mL), MLR, 1 µg/mL mAb [18]: 21500 pg/mL | IFN-γ (pg/mL), MLR, 10 µg/mL mAb [18]: 21400 pg/mL | Mean fluorescence intensity [19]: 512 | Mean fluorescence intensity [20]: 602 | Mean fluorescence intensity [21]: 4.68 | IL-2 (pg/mL), MLR, 0.001 µg/mL mAb [22]: 205 pg/mL | IL-2 (pg/mL), MLR, 0.01 µg/mL mAb [22]: 218 pg/mL | IL-2 (pg/mL), MLR, 0.1 µg/mL mAb [22]: 563 pg/mL | IL-2 (pg/mL), MLR, 1 µg/mL mAb [22]: 716 pg/mL | IL-2 (pg/mL), MLR, 10 µg/mL mAb [22]: 791 pg/mL

B2: fully human anti-PD-L1 antibody 78A11F6 (antibody, human IgG4 S228P, kappa, V domains shown)
VH: EVQLVESGGGLVQPGGSLRLSCAASGITFSSYWMSWVRQTPGKGLEWVANIKQDGSEKYYVKSVKGRFTISRDNAKNSLYLQMNSLRAEDTAVYYCVRDRAVPGTGAFDIWGQGTMVIVSS
VL: DIQMTQSPSTLSASVGDRVTITCRASQSISNWLAWYQQKPGKAPKLLIYKASSLESGVPSRFSGSGSGTEFTLTISSLQPDDFATYYCQQYDSSLFTFGQGTKLEIKR
notes: also called 78A11F6 (fully human)
Mean fluorescence intensity [1]: 64.1 | Mean fluorescence intensity [2]: 8.94 | Mean fluorescence intensity [3]: 619 | Mean fluorescence intensity [4]: 521 | Kd [5]: 0.643 nM | koff [5]: 0.000472 s⁻¹ | kon [5]: 734000 M⁻¹ s⁻¹ | Mean fluorescence intensity [6]: 243 | Mean fluorescence intensity [7]: 620 | Mean fluorescence intensity [8]: 529 | IFN-γ (pg/mL), MLR, 0.001 µg/mL mAb [9]: 1080 pg/mL | IFN-γ (pg/mL), MLR, 0.01 µg/mL mAb [9]: 1650 pg/mL | IFN-γ (pg/mL), MLR, 0.1 µg/mL mAb [9]: 3010 pg/mL | IFN-γ (pg/mL), MLR, 1 µg/mL mAb [9]: 3760 pg/mL | IFN-γ (pg/mL), MLR, 10 µg/mL mAb [9]: 3400 pg/mL | Mean fluorescence intensity [10]: 36.5 | IC50 (read off the curve) [11]: ~0.7 nM | IC50 (read off the curve) [12]: ~0.7 nM | Mean fluorescence intensity [13]: 10.4 | Mean fluorescence intensity [14]: 5.47 | Mean fluorescence intensity [16]: 217 | IFN-γ (pg/mL), T cell stimulation assay, 0.001 µg/mL mAb [17]: 4030 pg/mL | IFN-γ (pg/mL), T cell stimulation assay, 0.01 µg/mL mAb [17]: 9200 pg/mL | IFN-γ (pg/mL), T cell stimulation assay, 0.1 µg/mL mAb [17]: 9840 pg/mL | IFN-γ (pg/mL), T cell stimulation assay, 1 µg/mL mAb [17]: 9960 pg/mL | IFN-γ (pg/mL), T cell stimulation assay, 10 µg/mL mAb [17]: 12500 pg/mL | Mean fluorescence intensity [19]: 538 | Mean fluorescence intensity [20]: 633 | Mean fluorescence intensity [21]: 6.53 | IL-2 (pg/mL), MLR, 0.001 µg/mL mAb [22]: 210 pg/mL | IL-2 (pg/mL), MLR, 0.01 µg/mL mAb [22]: 283 pg/mL | IL-2 (pg/mL), MLR, 0.1 µg/mL mAb [22]: 730 pg/mL | IL-2 (pg/mL), MLR, 1 µg/mL mAb [22]: 736 pg/mL | IL-2 (pg/mL), MLR, 10 µg/mL mAb [22]: 842 pg/mL

Source: patent US20190010233A1 (JIANGSU HYAMAB PHARMACEUTICAL, published 2019)
